# Measured values reported in US20250199010A1.
# What was measured:
# [1] = target: Mouse EGFR-Fc (mouse) (UniProt Q01279); experiment: SPR, 25 °C
# [2] = target: human EGFR-Fc mutant (L325V, S340A) (human) (UniProt P00533); experiment: SPR (Biacore), 37 °C
# [3] = target: Mouse EGFR-Fc (mouse) (UniProt Q01279); experiment: SPR (Biacore), 25 °C
# [4] = target: Human EGFR-Fc (human) (UniProt P00533); experiment: yeast surface display titration with human EGFR (panel Yeast display: HuL6-7D12)
# [5] = target: Mouse EGFR-Fc (mouse) (UniProt Q01279); experiment: SPR, murine EGFR-Fc
# [6] = target: human EGFR-Fc mutant (L325V, S340A) (human) (UniProt P00533); experiment: SPR, human EGFR-Fc (L325V, S340A)
# [7] = target: Mouse EGFR-Fc (mouse) (UniProt Q01279); experiment: SPR, murine EGFR-Fc; bracket from the bars of 7D12 and 9G8 to this bar
# [8] = target: Human EGFR-Fc (human) (UniProt P00533); experiment: SPR (Biacore), 37 °C
Kd [5] [nM],Kd [6] [nM],Substance,other results
,,7D12 (VHH),Kd [1]: 7200 nM; Kd [2]: 210 nM; Kd [3]: 7200 nM; Kd [4]: 2.1 nM
192,0.6,7D12-(AP)12-9G8,k' [7]: 950000
0.7,0.04,7D12-(AP)12-VSG-[-AA]9G8,
621,2,7D12-(E4K4)5-9G8,
194,,7D12-(EAAAK)8-9G8,
1.2,,7D12-(EAAAK)8-VSG-[-AA]9G8,
162,,7D12-(GGGS)3-9G8,
8.8,,7D12-FFH-(EAAAK)6-GGG-[-AA]9G8,
17,,7D12-KGR-(EAAAK)8-AGG-[-AA]9G8,
3.1,,7D12-SSV-(E4K4)4-GPG-[-AA]9G8,
1.2,0.04,7D12-WMV-(GGGS)6-VTG-[-AA]9G8,
,,9G8 (VHH),Kd [8]: 3.8 nM; Kd [2]: 13 nM
